Data: US20100203041A1 (Genentech, published 2010)

T1: recombinant mouse EGFL7 (mouse, UniProt Q9QXT5 22-275, limits assumed)
T1 construct: also called mEGFL7; poly-His-tagged EGFL7
T1 sequence (looked up): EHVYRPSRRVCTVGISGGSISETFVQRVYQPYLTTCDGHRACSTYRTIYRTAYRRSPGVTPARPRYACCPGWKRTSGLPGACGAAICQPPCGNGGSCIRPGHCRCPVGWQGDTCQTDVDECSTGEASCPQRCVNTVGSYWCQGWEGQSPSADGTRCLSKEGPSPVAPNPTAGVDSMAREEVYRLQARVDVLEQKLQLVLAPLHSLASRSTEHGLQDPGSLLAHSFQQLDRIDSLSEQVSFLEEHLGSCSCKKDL

T2: recombinant human EGFL7 (human, UniProt Q9UHF1 24-273, limits assumed)
T2 construct: Produced in E. coli and His6/poly-His-tagged; also called hEGFL7; poly-His-tagged EGFL7
T2 sequence (looked up): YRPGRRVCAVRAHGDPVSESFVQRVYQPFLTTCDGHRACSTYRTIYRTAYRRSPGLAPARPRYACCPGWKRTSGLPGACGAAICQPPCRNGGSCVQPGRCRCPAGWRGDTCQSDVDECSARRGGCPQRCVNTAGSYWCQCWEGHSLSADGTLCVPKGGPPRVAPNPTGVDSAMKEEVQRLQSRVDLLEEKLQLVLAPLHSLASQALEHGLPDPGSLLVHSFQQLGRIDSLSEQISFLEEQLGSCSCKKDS

B1: anti-EGFL7 mumab 4F11.1.8 (antibody, IgG2b, V domains shown)
VH: QIQLVQSGPELKKPGETVKISCKASGHTFTTYGMSWVKQAPGKGLKWMGWINTHSGVPTYADDFKGRFAFSLETSASTAHLQINNLKNEDTATYFCARLGSSAVDYWGQGTTVTVSS
VL: DIVLTQSPASLAVSLGQRATISCKASQSVDYDGDSYMSWYQQKPGQPPKLLIYGASNLESGIPARFSGSGSGTDFTLNIHPVEEEDAATYYCQQNNEDPYTFGGGTKVEIKR
notes: ATCC PTA-7343

Tests used:
recombinant mouse EGFL7 = target: T1, recombinant mouse EGFL7; assay: SPR, BIAcore 3000, room temperature; antibody on CM5 chip, poly-His-tagged EGFL7 injected; 1:1 global fit; Mab stock in 50 mM Tris/125 mM NaCl
Protocol: (§1) Binding affinity of the Mabs for both human and mouse EGFL7 was determined by surface plasmon resonance using Pharmacia BIAcore® 3000 (BIAcore AB, Uppsala, Sweden) at room temperature (see, e.g., Morton et al., Meth. Enzymol. 295:268-94 (1998)). Anti-EGFL7 antibodies were immobilized to the sensor chip (CM5) through primary amine groups. The carboxymethylated sensor chip surface matrix was activated by injecting 20 μl of a mixture of 0.025 M N-hydroxysuccinimide and 0.1 M N-ethyl-N′(dimethylaminopropyl) carbodiimide at 5 μl/min 5-10 μl of 10 μg/ml solution of […] in 10 mM sodium acetate, pH 4.5, were injected at 5 μl/min After coupling, unoccupied sites on the chip were blocked by injecting 20 μl of 1M ethanolamine, pH 8.5. The running buffer was PBS containing 0.05% polysorbate 20. For kinetic measurements, two-fold serial dilutions of poly-His-tagged EGFL7 in running buffer were injected over the flow cells for 3 minutes at a flow rate of 30 μl/min and the bound polyhis tagged EGFL7 was allow to dissociate for 20 minutes. The binding surface was regenerated by injecting 20 μl of 10 mM glycine.HCl (pH 1.5). […] There was no significant non-specific binding of poly-His-tagged EGFL7 to flow cell one. For calculating apparent binding affinity, data were analyzed using a 1:1 binding model using global fitting. […]

recombinant human EGFL7 = target: T2, recombinant human EGFL7; assay: as above
Protocol: as §1

[1] = target: B1; assay: peptide competition at 10-fold molar excess with EGFL7 protein; immunoprecipitation and SDS-PAGE

Kd (recombinant mouse EGFL7)	Kd (recombinant human EGFL7)	binding result [1]	Binder
0.756 nM	0.473 nM	–	B1
–	–	binds	RPRYACCPGWKRT [polypeptide p2]
